Data as given in patent US9913914.

Molecular target: Cupid B-PTEN peptide

B1: PTEN protein of Dictyostelium (protein)
chain: MSNLLRVAVSKQKRRYQKNGYDLDLAYITDNIVAMGFPSEKVEGVFRNPMKDVQRFLDQYHKDHFKVYNLCSERVYDHSKFYGRVGYYPFDDHNAPQFEMIDAFCRDVDAWMKEDSKNIAVIHCKAGKGRTGLMICCWLMYCGMWKNTEDSLRFYAALRTYNQKGVTIPSQIRYVGYFGRSIRESIKYVPRNVTLKKIVLRPLPKEINLSEVQFNISVGKNCVFNSKEHNMNVVISKKKKTVVDKNKKDPKKKLTKENSEKNIDSQQQQQSQSSLSQSQQGQSSPNMQSLSASGTISSGSNVGTVNGNTLHQLGGSQFSLSDLADGNTIGNDEYISFEIGALSLAGDIRIEFTNKQDDRMFMFWVNTSFVQQLEIIPKSGLDKAHKDKNHKAFPEDFHVELTFDQLDQQQSHTTVVASAEEQTNNQHYPQSSNNVATSSSHHDNITVVASDAPQNNNNNNNLNSSNSNNATTTTTKNNISLASSQSNPVQQESNPSTTTQVSEENSAPKVEAEKIENSNASANDSETSSNSSS
- phosphorylation response of proteins to cyclic AMP (antibody detection on SDS gels): they exhibited a much stronger initial phosphorylation response to cyclic AMP
